# Results taken from article PMC8184781, “A histone H3K4me1-specific binding protein is required for siRNA accumulation and DNA methylation at a subset of loci targeted by RNA-directed DNA methylation” (Nature Communications, 2021).
# Columns and labels:
# Assay in all cases: ITC; Microcal PEAQ-ITC, 20 °C; protein about 0.8–0.12 mM (so in the source), peptide about 1.0–1.5 mM; 100 mM NaCl, 20 mM HEPES, 2 mM β-mercaptoethanol (pH 7.0 in the methods, [7.4] in the footnote of Supplementary Table 1)
# [1] = molecular target: RDM15 Tudor domain (residues 598-662), wild type (Arabidopsis thaliana)
# [2] = molecular target: RDM15 Tudor domain (residues 598-662) Q654A (Arabidopsis thaliana)
# [3] = molecular target: RDM15 Tudor domain (residues 598-662) D645A (Arabidopsis thaliana)
Kd [1] [µM],stoichiometry N [1],Kd [2] [µM],stoichiometry N [2],Kd [3] [µM],stoichiometry N [3],Substance
30.9,1.03,,,,,H3K4me2 peptide
66.2,0.9,,,,,H3K4me3 peptide
,0.96,60.8,1.08,62.7,0.86,H3(1-15) K4me1 peptide
